Here are results for two molecules from publication PMC8000724, “Trans-Epithelial Transport, Metabolism, and Biological Activity Assessment of the Multi-Target Lupin Peptide [sequence] (P5) and Its Metabolite [sequence] (P5-Met)” (Nutrients, 2021).

In assay [1] the target is 3-hydroxy-3-methylglutaryl coenzyme A reductase (HMGCoAR), catalytic domain. Kind of assay: cell-based or functional assay.
For assay [2], the target named is T1, proprotein convertase subtilisin/kexin type-9 (PCSK9), His-tagged (UniProt Q8NBP7 31-692).
T1 construct: PCSK9, recombinant His-tagged protein of the kit; The functional rows use this molecule; also called His-tagged PCSK9
T1 sequence (Q8NBP7 31-692): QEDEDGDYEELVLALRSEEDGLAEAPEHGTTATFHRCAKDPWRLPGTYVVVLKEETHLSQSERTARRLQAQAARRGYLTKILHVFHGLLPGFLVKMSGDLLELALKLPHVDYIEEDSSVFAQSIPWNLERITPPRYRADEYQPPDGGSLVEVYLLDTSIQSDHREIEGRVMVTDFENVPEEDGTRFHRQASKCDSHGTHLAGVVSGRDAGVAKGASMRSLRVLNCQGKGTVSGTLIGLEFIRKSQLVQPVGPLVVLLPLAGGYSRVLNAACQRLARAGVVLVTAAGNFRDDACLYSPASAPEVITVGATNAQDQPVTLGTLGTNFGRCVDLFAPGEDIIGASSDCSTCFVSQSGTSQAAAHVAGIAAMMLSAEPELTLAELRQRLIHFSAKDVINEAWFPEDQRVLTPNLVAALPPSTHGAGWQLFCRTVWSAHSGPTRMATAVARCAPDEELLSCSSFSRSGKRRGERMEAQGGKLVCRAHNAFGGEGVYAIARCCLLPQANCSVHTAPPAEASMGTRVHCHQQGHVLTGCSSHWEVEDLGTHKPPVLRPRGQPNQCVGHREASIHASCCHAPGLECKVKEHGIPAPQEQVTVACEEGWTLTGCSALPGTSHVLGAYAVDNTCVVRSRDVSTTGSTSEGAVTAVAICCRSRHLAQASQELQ
Briefly: ELISA; CircuLex in vitro PCSK9-LDLR binding assay kit; plate pre-coated with recombinant LDLR-AB domain; peptide (0.1-100 uM) in reaction buffer, then His-tagged PCSK9 added; 2 h at room temperature; detected with biotinylated anti-His-tag antibody, HRP-streptavidin and TMB, absorbance at 450 nm. As to conditions: both partners purified. Background: An ELISA detects its analyte on a solid surface through an enzyme-linked reagent.

Sequence of 3-hydroxy-3-methylglutaryl coenzyme A reductase (HMGCoAR), catalytic domain (P04035 whole entry, the tested form may be a part): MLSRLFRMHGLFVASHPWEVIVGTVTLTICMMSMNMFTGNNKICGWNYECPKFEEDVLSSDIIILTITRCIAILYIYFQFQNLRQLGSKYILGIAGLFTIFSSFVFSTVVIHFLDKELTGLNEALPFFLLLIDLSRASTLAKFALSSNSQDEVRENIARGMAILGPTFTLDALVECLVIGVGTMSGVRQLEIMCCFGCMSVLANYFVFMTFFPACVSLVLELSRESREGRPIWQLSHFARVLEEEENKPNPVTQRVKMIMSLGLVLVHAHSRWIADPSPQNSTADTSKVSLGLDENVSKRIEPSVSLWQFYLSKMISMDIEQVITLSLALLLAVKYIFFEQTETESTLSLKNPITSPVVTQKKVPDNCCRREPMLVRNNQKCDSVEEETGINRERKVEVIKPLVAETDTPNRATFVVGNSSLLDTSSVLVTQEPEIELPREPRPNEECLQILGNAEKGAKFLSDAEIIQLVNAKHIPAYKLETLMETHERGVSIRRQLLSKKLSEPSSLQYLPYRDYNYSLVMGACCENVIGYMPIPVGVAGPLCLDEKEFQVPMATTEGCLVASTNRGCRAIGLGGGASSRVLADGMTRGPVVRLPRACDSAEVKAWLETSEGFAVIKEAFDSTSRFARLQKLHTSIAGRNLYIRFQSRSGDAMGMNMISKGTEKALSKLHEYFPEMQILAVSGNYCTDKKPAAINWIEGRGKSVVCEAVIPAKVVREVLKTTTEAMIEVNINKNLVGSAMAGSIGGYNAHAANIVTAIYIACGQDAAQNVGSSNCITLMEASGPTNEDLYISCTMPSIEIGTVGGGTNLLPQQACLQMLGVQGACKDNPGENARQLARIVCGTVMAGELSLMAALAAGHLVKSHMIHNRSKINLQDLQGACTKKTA

B1: P5-met (LPKHSDAD), metabolite of lupin peptide P5 (peptide)
peptide: LPKHSDAD
notes: source: synthetic peptide (GeneScript, >95% purity)
One may read the IC50 as the concentration at which inhibition is half-maximal. As to B1, the “in vitro HMGCoAR activity (NADPH oxidation, absorbance at 340 nm, 37 °C), peptide 10-500 µM; IC50” value in assay [1] stood at 175 µM. In assay [2], the IC50 stood at 1.7 µM.

B2: lupin peptide P5 (LILPKHSDAD) (peptide)
peptide: LILPKHSDAD
notes: peptide from the peptic hydrolysate of lupin protein; also called parent peptide; source: synthetic peptide (GeneScript, >95% purity)
As for B2, the “in vitro HMGCoAR activity (NADPH oxidation, absorbance at 340 nm, 37 °C), peptide 10-500 µM; IC50” value in assay [1] came out at 147 µM. In addition, the IC50 in assay [2] was 1.3 µM.
